Experimental data published in article PMC5651819, “AtSPX1 affects the AtPHR1–DNA-binding equilibrium by binding monomeric AtPHR1 in solution” (Biochemical Journal, 2017).

Molecular target: MBP-AtdPHR1 (Arabidopsis thaliana) (UniProt Q94CL7)
Test: SPR
Conditions: SPR (Biacore 3000, SA chip, ~500 RU DNA): 10 mM HEPES pH 7.5, 200 mM NaCl, 0.01% Surfactant P-20, 25 C, 40 ul/min, with or without Pi/InsP6

Sequence of MBP-AtdPHR1 (Arabidopsis thaliana) (Q94CL7 208-362): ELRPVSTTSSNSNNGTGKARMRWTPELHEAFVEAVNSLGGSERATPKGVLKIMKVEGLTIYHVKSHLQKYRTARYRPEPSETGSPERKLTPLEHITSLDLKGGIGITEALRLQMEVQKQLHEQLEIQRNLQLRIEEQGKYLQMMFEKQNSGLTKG

Sequence: ACACTTCGTCACGCTAAAGCTAAGCATATCCGCTTTCATATTCCTTTACACAAC (double strand) [1x P1BS probe]
- Kd: 707 nM
